Results on one molecule are retold here after patent US20150343088A1 (KAGOSHIMA UNIVERSITY, published 2015).

This assay deals with T1, human folate receptor β (human, UniProt P14207 17-230).
T1 construct: whole, on cells; also called FRβ; FR-β
As to the kind of experiment: flow cytometry on human FRβ-expressing B300-19 cells. Background: Flow cytometry measures light scatter and fluorescence of single cells or particles in a stream.

T1 sequence (P14207 17-230): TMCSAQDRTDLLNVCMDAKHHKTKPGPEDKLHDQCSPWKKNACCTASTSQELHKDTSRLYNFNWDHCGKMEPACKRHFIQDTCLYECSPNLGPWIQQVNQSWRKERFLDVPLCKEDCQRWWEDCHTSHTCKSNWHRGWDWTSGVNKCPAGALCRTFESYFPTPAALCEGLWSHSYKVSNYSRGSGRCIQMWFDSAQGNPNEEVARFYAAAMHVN
Protocol: The cells were further reacted with an anti-rat antibody labeled with APC. After the end of reaction, stainability was determined using a flow cytometer.

B1: anti-human FRα/β rat monoclonal antibody (clone name: No. 5) (antibody, V domains shown)
VH: QVQLKESGPGLVQPSQTLSLTCTVSGFSLTSNSVSWVRQPPGKGLEWMGAIWSGGSTDYNSALKSRLSISKDTSKSQVFLKMNSLQTEDTAIYFCTRYYGYTYFAYWGQGVMVTVSS
VL: DIQMTQSPASLSASLEEIVTITCQASQDIGNWLAWYQQKPGKSPQLLIYDAIRLADGVPSRFSGSRSGTQYSLKISRLQVEDIGDYYCQQGQSNPRTFGGGTKLELK
notes: also called antibody No. 5; anti-human FRα/β antibody
B1: the binding result is “binds”.
